Experiment [1] concerns the target IRE1α kinase-endoribonuclease module, fully phosphorylated (IRE1-KR-3P) (human) (UniProt O75460). The experiment can be described thus: cross-linking.
For experiment [2], the target named is IRE1α kinase-endoribonuclease module, unphosphorylated (IRE1-KR-0P) (human) (UniProt O75460). The experiment can be described thus: cross-linking.

Values joined by “and” are separate entries in the source; they are usually repeats but may differ in a detail not shown here. Equal entries are not always repeated.

By stoichiometry N is commonly meant the number of molecules, sites or subunits per partner or assembly. As to “IRE1α kinase-endoribonuclease module, fully phosphorylated (IRE1-KR-3P) (from UniProt O75460 547-977) (domain or fragment)”, in experiment [1], the stoichiometry N is 2 and 4 and 6.

In turn, “IRE1α kinase-endoribonuclease module, unphosphorylated (IRE1-KR-0P) (from UniProt O75460 547-977) (domain or fragment)” came in with a stoichiometry N in experiment [2] of 2.
